{"source": "paper PMC12814185", "about": "“Receptor-Mediated Shuttling of a D‑Amino Acid Peptide Achieves High Nanomolar Cytosolic Concentrations” (Journal of the American Chemical Society, 2025)", "biological_target": "recombinant human GST-MDM2 (human) (UniProt Q00987)", "sequence (Q00987 whole entry)": "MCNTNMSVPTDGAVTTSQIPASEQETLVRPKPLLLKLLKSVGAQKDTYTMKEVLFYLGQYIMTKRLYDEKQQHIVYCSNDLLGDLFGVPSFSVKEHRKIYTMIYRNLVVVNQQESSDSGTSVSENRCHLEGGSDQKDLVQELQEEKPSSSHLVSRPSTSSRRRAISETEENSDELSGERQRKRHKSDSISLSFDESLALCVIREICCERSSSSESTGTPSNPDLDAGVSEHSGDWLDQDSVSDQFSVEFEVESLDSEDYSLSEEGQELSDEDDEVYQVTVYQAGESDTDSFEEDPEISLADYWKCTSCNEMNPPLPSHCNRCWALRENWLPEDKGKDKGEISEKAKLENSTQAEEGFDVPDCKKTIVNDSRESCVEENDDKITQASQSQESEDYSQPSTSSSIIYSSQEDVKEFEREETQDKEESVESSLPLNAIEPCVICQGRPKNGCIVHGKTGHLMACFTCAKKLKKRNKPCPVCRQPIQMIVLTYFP", "assay": "fluorescence polarisation"}
{"substance": "Cy5-r9-PMIγ (peptide)", "values": [{"measurement": "Kd", "result": 57, "unit": "nM"}]}
